From US20220033501A1

Tests used:
[1] = target: monkey TIM-3 on CHOK1 stable cell line (CHOK1-cTIM-3) (monkey); assay: FACS, CHOK1-cTIM-3 cells, 0.064 nM antibody
[2] = target: murine TIM-3 extracellular domain protein with hFc tag (mTIM-3-hFc) (mouse) (UniProt Q8VIM0); assay: ELISA, coated mouse TIM-3 ECD protein, 0.0067 nM antibody
[3] = target: human TIM-3 extracellular domain protein with hFc tag (hTIM-3-hFc) (human) (UniProt Q8TDQ0); assay: FACS, blocking of hTIM-3-hFc binding to phosphatidylserine on apoptotic Jurkat cells, 7.407 nM antibody
Sequence of human TIM-3 extracellular domain protein with hFc tag (hTIM-3-hFc) (human) (Q8TDQ0 22-200): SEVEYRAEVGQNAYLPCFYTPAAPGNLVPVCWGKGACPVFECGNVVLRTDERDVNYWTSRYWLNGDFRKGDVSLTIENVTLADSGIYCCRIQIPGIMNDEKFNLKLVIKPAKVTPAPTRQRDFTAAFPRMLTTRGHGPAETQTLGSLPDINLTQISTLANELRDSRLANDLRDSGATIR

[4] = target: human TIM-3 on CHOK1 stable cell line (CHOK1-hTIM-3) (human) (UniProt Q8TDQ0); assay: FACS, CHOK1-hTIM-3 cells, 40 nM antibody
Sequence of human TIM-3 on CHOK1 stable cell line (CHOK1-hTIM-3) (human) (Q8TDQ0 22-301 limits assumed): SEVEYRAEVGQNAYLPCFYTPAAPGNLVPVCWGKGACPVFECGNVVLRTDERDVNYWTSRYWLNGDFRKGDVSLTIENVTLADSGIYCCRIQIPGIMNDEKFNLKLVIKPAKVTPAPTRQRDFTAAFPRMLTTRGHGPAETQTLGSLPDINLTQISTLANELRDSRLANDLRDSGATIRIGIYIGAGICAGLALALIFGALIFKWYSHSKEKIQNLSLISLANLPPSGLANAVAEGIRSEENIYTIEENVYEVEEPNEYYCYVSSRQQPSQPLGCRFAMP

[5] = target: monkey TIM-3 extracellular domain protein with hFc tag (cTIM-3-hFc) (monkey); assay: ELISA, coated monkey TIM-3 ECD protein, 0.6667 nM antibody
Sequence of monkey TIM-3 extracellular domain protein with hFc tag (cTIM-3-hFc) (monkey) (chain, as listed by the source): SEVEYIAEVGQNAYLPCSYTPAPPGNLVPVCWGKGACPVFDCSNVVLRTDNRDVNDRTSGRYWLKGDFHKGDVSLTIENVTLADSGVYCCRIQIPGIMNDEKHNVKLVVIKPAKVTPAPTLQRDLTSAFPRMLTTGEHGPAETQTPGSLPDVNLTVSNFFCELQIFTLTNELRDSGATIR

[6] = target: human TIM-3 extracellular domain protein with hFc tag (hTIM-3-hFc) (human) (UniProt Q8TDQ0); assay: FACS, blocking of hTIM-3-hFc binding to phosphatidylserine on apoptotic Jurkat cells, 2.469 nM antibody
[7] = target: monkey TIM-3 on CHOK1 stable cell line (CHOK1-cTIM-3) (monkey); assay: FACS, CHOK1-cTIM-3 cells, 0.013 nM antibody
[8] = target: murine TIM-3 extracellular domain protein with hFc tag (mTIM-3-hFc) (mouse) (UniProt Q8VIM0); assay: ELISA, coated mouse TIM-3 ECD protein, 0 nM antibody
[9] = target: monkey TIM-3 extracellular domain protein with hFc tag (cTIM-3-hFc) (monkey); assay: ELISA, coated monkey TIM-3 ECD protein, 66.667 nM antibody
[10] = target: human TIM-3 on CHOK1 stable cell line (CHOK1-hTIM-3) (human) (UniProt Q8TDQ0); assay: FACS, CHOK1-hTIM-3 cells, 0.32 nM antibody
[11] = target: human TIM-3 extracellular domain protein with hFc tag (hTIM-3-hFc) (human) (UniProt Q8TDQ0); assay: FACS, blocking of hTIM-3-hFc binding to phosphatidylserine on apoptotic Jurkat cells, 0.274 nM antibody
[12] = target: human TIM-3 extracellular domain protein with hFc tag (hTIM-3-hFc) (human) (UniProt Q8TDQ0); assay: ELISA, coated human TIM-3 ECD protein, 66.667 nM antibody
[13] = target: human TIM-3 on CHOK1 stable cell line (CHOK1-hTIM-3) (human) (UniProt Q8TDQ0); assay: FACS, CHOK1-hTIM-3 cells, 0 nM antibody
[14] = target: human TIM-3 extracellular domain protein with hFc tag (hTIM-3-hFc) (human) (UniProt Q8TDQ0); assay: FACS, blocking of hTIM-3-hFc binding to phosphatidylserine on apoptotic Jurkat cells, 66.667 nM antibody
[15] = target: monkey TIM-3 extracellular domain protein with hFc tag (cTIM-3-hFc) (monkey); assay: ELISA, coated monkey TIM-3 ECD protein, 0.0067 nM antibody
[16] = target: human TIM-3 extracellular domain protein with hFc tag (hTIM-3-hFc) (human) (UniProt Q8TDQ0); assay: ELISA, coated human TIM-3 ECD protein, 0 nM antibody
[17] = target: human TIM-3 extracellular domain protein with hFc tag (hTIM-3-hFc) (human) (UniProt Q8TDQ0); assay: FACS, blocking of hTIM-3-hFc binding to phosphatidylserine on apoptotic Jurkat cells, 0.823 nM antibody
[18] = target: human TIM-3 on CHOK1 stable cell line (CHOK1-hTIM-3) (human) (UniProt Q8TDQ0); assay: FACS, CHOK1-hTIM-3 cells, 0.064 nM antibody

Sequence of monkey TIM-3 on CHOK1 stable cell line (CHOK1-cTIM-3) (monkey) (chain, as listed by the source limits assumed): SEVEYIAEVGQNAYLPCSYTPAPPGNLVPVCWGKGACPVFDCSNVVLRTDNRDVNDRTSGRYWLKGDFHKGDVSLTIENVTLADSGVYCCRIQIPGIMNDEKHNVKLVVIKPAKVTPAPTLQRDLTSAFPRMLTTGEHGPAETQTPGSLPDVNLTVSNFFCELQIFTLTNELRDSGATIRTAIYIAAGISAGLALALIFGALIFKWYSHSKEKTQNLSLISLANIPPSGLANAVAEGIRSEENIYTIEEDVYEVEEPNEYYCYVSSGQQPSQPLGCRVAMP
Sequence of murine TIM-3 extracellular domain protein with hFc tag (mTIM-3-hFc) (mouse) (Q8VIM0 other isoform, or with tags, fused parts or gaps): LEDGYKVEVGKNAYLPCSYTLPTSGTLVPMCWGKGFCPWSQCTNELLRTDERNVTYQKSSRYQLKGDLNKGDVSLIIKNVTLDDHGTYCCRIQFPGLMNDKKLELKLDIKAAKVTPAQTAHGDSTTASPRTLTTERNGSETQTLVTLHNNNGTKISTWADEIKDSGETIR

For human IgG control (antibody), the Mean fluorescence intensity [1] was 2.9, the OD450 [2] was 0.21 and the Inhibition ratio (%) [3] was 0.5%. For the same substance, the Mean fluorescence intensity [4] was 5, the OD450 [5] was 0.15 and the Inhibition ratio (%) [6] was -3.9%. For the same substance, the Mean fluorescence intensity [7] was 2.8, the OD450 [8] was 0.23 and the OD450 [9] was 0.43. The Mean fluorescence intensity [10] was 2.9, the Inhibition ratio (%) [11] was -20% and the OD450 [12] was 0.14. The Mean fluorescence intensity [13] was 2.8, the Inhibition ratio (%) [14] was 9.6% and the OD450 [15] was 0.13. For the same substance, the OD450 [16] was 0.07, the Inhibition ratio (%) [17] was 2.8% and the Mean fluorescence intensity [18] was 2.8.
